The target in the assay is PDZ1/2 domain (Homo sapiens (Human)) (UniProt P78352). In words: SPR, Biacore 3000, PDZ1/2 amine-coupled on CM5 chip, peptide as analyte, 1:1 binding model.
PDZ1/2 domain (Homo sapiens (Human)), sequence (P78352 65-246 limits assumed): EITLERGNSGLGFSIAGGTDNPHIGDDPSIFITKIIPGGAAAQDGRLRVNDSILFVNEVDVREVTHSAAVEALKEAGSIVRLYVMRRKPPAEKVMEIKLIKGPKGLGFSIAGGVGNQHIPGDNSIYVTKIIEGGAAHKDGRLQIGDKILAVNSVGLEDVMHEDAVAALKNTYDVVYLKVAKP

As for control chimeric peptide NA-1, the Kd turned out to be 75.3 nM.

Values taken from US20200385425A1.
